Columns and labels:
[1] = biological target: T1, soluble human LAG-3 fusion protein (extracellular domain of human LAG-3 fused to murine IgG2a) (human; murine, UniProt P18627 23-450); experiment: Biacore; human LAG-3 ECD-murine IgG2a captured on Fab2 goat-anti-mouse Fc, antibody injected
T1 construct: also called human LAG-3-murine IgG2a fusion protein; not shown: murine IgG2a
T1 sequence: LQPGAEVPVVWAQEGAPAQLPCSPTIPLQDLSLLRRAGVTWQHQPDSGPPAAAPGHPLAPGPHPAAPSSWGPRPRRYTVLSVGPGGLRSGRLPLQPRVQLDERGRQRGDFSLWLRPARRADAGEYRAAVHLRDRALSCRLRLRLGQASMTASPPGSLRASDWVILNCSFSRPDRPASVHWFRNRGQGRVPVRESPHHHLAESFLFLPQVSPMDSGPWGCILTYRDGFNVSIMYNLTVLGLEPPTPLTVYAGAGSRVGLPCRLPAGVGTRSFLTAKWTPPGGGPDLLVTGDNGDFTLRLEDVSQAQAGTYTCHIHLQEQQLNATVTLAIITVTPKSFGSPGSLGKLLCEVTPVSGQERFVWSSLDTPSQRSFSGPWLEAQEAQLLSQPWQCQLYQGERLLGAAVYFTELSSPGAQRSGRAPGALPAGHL

[2] = biological target: T2, soluble cynomolgus monkey LAG-3 fusion protein (extracellular domain of cynomolgus monkey LAG-3 fused to … (cynomolgus monkey; murine); experiment: Biacore; cynomolgus LAG-3 ECD-murine IgG2a captured on Fab2 goat-anti-mouse Fc, antibody injected
T2 construct: extracellular domain; also called cynomolgus LAG-3-murine IgG2a fusion protein

[3] = biological target: T3, His-tagged soluble human LAG-3 (shLAG-3-His) (human, UniProt P18627 23-450); experiment: Biacore; antibody captured (capture surface not marked for this row), shLAG-3-His injected
T3 construct: also called soluble human LAG-3-His fusion protein; extracellular domain of human LAG-3 fused to a His tag; not shown: His tag
T3 sequence: T1 sequence

B1: LAG-3 mAb A (25F7, BMS-986016, Medarex/BMS) (antibody, V domains shown)
VH: QVQLQQWGAGLLKPSETLSLTCAVYGGSFSDYYWNWIRQPPGKGLEWIGEINHNGNTNSNPSLKSRVTLSLDTSKNQFSLKLRSVTAADTAVYYCAFGYSDYEYNWFDPWGQGTLVTVSS
VL: EIVLTQSPATLSLSPGERATLSCRASQSISSYLAWYQQKPGQAPRLLIYDASNRATGIPARFSGSGSGTDFTLTISSLEPEDFAVYYCQQRSNWPLTFGQGTNLEIK
notes: also called LAG-2 mAb A
Kd [1]: 160 pM | Kd [2]: 458000 pM | Kd [3]: 600 pM

— US20190085075A1 (published 2019)
